Test results as given in patent US20050182242A1, “Global analysis of protein activities using proteome chips” (priority 2001, published 2005).

Key:
Settings in all cases: liposome binding signal on yeast proteome chip, Cy3-streptavidin detection
PI(3,4,5)P3 liposomes = assay: Yeast proteome chip probed with PI(3,4,5)P3 liposomes
PI(3)P liposomes = assay: Yeast proteome chip probed with PI(3)P liposomes
From the text: To identify PI-binding proteins in yeast, liposomes were used as probes because the liposome provides the most relevant physiological condition to assay the interactors. Six types of liposomes were used. Each contains phosphatidylcholine (“PC”) with 1% (w/w) N-(biotinoyl)-1,2-dihexadecanoyl-sn-glycero-3-phosphoethanolamine, triethylammonium salt (biotin DHPE). The biotinylated lipid serves as a label that can be detected by Cy3-streptavidin (21). In addition to PC, the five other liposomes contain either 5% (w/w) PI(3)P, PI(4)P, PI(3,4)P2, PI(4,5)P2, or PI(3,4,5)P3 (FIG. 3A).
The protein-liposome interaction was assayed as follows. Appropriate amounts of each lipid in chloroform were mixed and dried under nitrogen. The lipid mixture was resuspended in TBS buffer by vortexing. The liposomes were created by sonication. Blocked proteome chips were washed three to five times in PBS buffer, and the extra liquid on the glass surface was removed by tapping the slides vertically on a KIMWIPE™. 200 μl of liposome solution was added to the proteome chip and immediately covered by a hydrophobic plastic cover slip (GRACE BIO-LAB™, USA). After trapped air bubbles were removed, the chip was incubated in a humidity chamber at RT for one hour. To remove the cover slip, the chip was immersed into large volume of PBS buffer (50 ml), so that the slip would float away. The chip was then moved to a second PBS bath (>50 ml) and washed 3×5 min with shaking at RT. After removing extra liquid on the surface of the chip, about 100 μl of Cy3 or Cy5 conjugated streptavidin (PIERCE™, USA; 1:2000 to 1:4000 dilution) was added to the surface and covered by a hydrophobic plastic cover slip (GRACE BIO-LABS™, USA). The chip was incubated for greater than 30 min in the dark at RT. The chip was then washed as described above. To completely remove the liquid on the chip, the chip was spun to dryness at 1500-2000 rpm for 5-10 min at RT.
• 1. S. Fields, Y. Kohara, D. J. Lockhart, Proc. Natl. Acad. Sci. 96, 8825 (1999); A. Goffeau et al., Science 274, 563 (1996). • 2 P. Ross-Macdonald et al., Nature 402, 413 (1999); J. L., DeRisi, V. R. Iyer, P. O. Brown, Science 278, 680 (1997); E. A. Winzeler et al., Science 285, 901 (1999). P. Uetz et al., Nature 403, 623 (2000); T. Ito et al., Proc. Natl. Acad. Sci. USA. 97, 1143 (2000) • 3 H. Zhu, M. Snyder, Curr. Opin. Chem. Biol. 5, 40 (2001). • 4 M. R. Martzen et al., Science 286, 1153 (1999). • 5 H. Zhu et al., Nat. Genet. 26, 283 (2000). • 6 G. MacBeath, S. L. Schreiber, Science 289, 1760 (2000). • 7 A. Caveman, J. Cell Sci. 113, 3543 (2000). • 8 P. Arenkov et al., Anal. Biochem 278, 123 (2000). • 9 D. A. Mitchell, T. K. Marshall, R. J. Deschenes, Yeast 9, 715 (1993). The expression vector pEGH was created by inserting an RGS-HisX6 epitope tag between the GST gene and the polycloning site of pEG(KG). The yeast ORFs were cloned using the strategy described previously (5), except every step was done in a 96-well format. Plasmid DNAs confirmed by DNA sequencing were reintroduced into both yeast (Y258) and E. coli (DH5a). […] 0.1 mM calcium was present in buffers in all subsequent steps. The chip was washed three times with PBS at RT. Cy3-conjugated streptavidin (Jackson IR, USA) (1:5000 dilution) was added to the chip and incubated for 30 min at RT. After extensive washing, the chip was spun dry and scanned using a microarray scanner; the data was subsequently acquired with the GENEPIX™ array densitometry software (Axon, USA). • 12 S. S. Hook, A. R. Means, Annu. Rev. Pharmacol. Toxicol.41, 471 (2001). • 13 M. S. Cyert, R. Kunisawa, D. Kaim, J. Thorner, Proc. Natl. Acad. Sci. USA 88, 7376 (1991). • 14 D. A. Stirling, K. A. Welch, M. J. Stark, EMBO J. 13, 4329 (1994). • 15 F. Bohl, Kruse, EMBO J. 19, 5514 (2000); E. Bertrand et al., Mol. Cell 2, 437 (1998). • 16 D. C. Winter, E. Y. Choe, R. Li, Proc. Nat. Acad Sci. USA 96, 7288 (1999). • 17 C.

[1] = system: phosphatidylcholine (PC) liposomes; assay: Yeast proteome chip probed with PC liposomes
Summary of the method: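 Signal comes from Cy3- or Cy5-streptavidin recognising 1% (w/w) biotin-DHPE carried in every liposome. Liposomes were PC alone or PC containing 5% (w/w) of a single phosphoinositide, applied to arrayed GST-fusion yeast proteins for 1 h at RT.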

PI(3,4)P2 liposomes = assay: Yeast proteome chip probed with PI(3,4)P2 liposomes
PI(4)P liposomes = assay: Yeast proteome chip probed with PI(4)P liposomes
PI(4,5)P2 liposomes = assay: Yeast proteome chip probed with PI(4,5)P2 liposomes

Molecule | PI(3, 4, 5)P3 (PI(3,4,5)P3 liposomes) | PI(3)P (PI(3)P liposomes) | PC [1] | PI(3, 4)P2 (PI(3,4)P2 liposomes) | PI(4)P (PI(4)P liposomes) | PI(4, 5)P2 (PI(4,5)P2 liposomes)
KSS1: yeast GST-HisX6 fusion protein on proteome chip (protein, UniProt P14681 1-368, looked up, GST-His6 tag, yeast GST-HisX6 fusion protein on proteome chip) Mitogen-activated protein …: MARTITFDIPSQYKLVDLIGEGAYGTVCSAIHKPSGIKVAIKKIQPFSKKLFVTRTIREIKLLRYFHEHENIISILDKVRPVSIDKLNAVYLVEELMETDLQKVINNQNSGFSTLSDDHVQYFTYQILRALKSIHSAQVIHRDIKPSNLLLNSNCDLKVCDFGLARCLASSSDSRETLVGFMTEYVATRWYRAPEIMLTFQEYTTAMDIWSCGCILAEMVSGKPLFPGRDYHHQLWLILEVLGTPSFEDFNQIKSKRAKEYIANLPMRPPLPWETVWSKTDLNPDMIDLLDKMLQFNPDKRISAAEALRHPYLAMYHDPSDEPEYPPLNLDDEFWKLDNKIMRPEEEEEVPIEMLKDMLYDELMKTME | 0.23 | −11.50 | 16.43 | 87.91 | 10.45 | −2.61
APG7: yeast GST-HisX6 fusion protein on proteome chip (protein, UniProt P38862 1-630, looked up, GST-His6 tag, yeast GST-HisX6 fusion protein on proteome chip) Ubiquitin-like …: MSSERVLSYAPAFKSFLDTSFFQELSRLKLDVLKLDSTCQPLTVNLDLHNIPKSADQVPLFLTNRSFEKHNNKRTNEVPLQGSIFNFNVLDEFKNLDKQLFLHQRALECWEDGIKDINKCVSFVIISFADLKKYRFYYWLGVPCFQRPSSTVLHVRPEPSLKGLFSKCQKWFDVNYSKWVCILDADDEIVNYDKCIIRKTKVLAIRDTSTMENVPSALTKNFLSVLQYDVPDLIDFKLLIIRQNEGSFALNATFASIDPQSSSSNPDMKVSGWERNVQGKLAPRVVDLSSLLDPLKIADQSVDLNLKLMKWRILPDLNLDIIKNTKVLLLGAGTLGCYVSRALIAWGVRKITFVDNGTVSYSNPVRQALYNFEDCGKPKAELAAASLKRIFPLMDATGVKLSIPMIGHKLVNEEAQHKDFDRLRALIKEHDIIFLLVDSRESRWLPSLLSNIENKTVINAALGFDSYLVMRHGNRDEQSSKQLGCYFCHDVVAPTDSLTDRTLDQMCTVTRPGVAMMASSLAVELMTSLLQTKYSGSETTVLGDIPHQIRGFLHNFSILKLETPAYEHCPACSPKVIEAFTDLGWEFVKKALEHPLYLEEISGLSVIKQEVERLGNDVFEWEDDESDEIA | 0.45 | −22.50 | 5.87 | −0.63 | 18.29 | 59.23
URA8: yeast GST-HisX6 fusion protein on proteome chip (protein, UniProt P38627 1-578, looked up, GST-His6 tag, yeast GST-HisX6 fusion protein on proteome chip) CTP synthase 2: MKYVVVSGGVISGIGKGVLASSTGMLLKTLGLKVTSIKIDPYMNIDAGTMSPLEHGECFVLDDGGETDLDLGNYERYLGITLSRDHNITTGKIYSHVISRERRGDYLGKTVQIVPHLTNAIQDWIQRVSKIPVDDTGLEPDVCIIELGGTVGDIESAPFVEALRQFQFEVGRENFALIHVSLVPVIHGEQKTKPTQAAIKDLRSLGLIPDMIACRCSEELNRSTIDKIAMFCHVGPEQVVNVHDVNSTYHVPLLLLKQHMIDYLHSRLKLGEVPLTLEDKERGSQLLTNWENMTKNLDDSDDVVKIALVGKYTNLKDSYLSVTKSLEHASMKCRRQLEILWVEASNLEPETQEVDKNKFHDSWNKLSSADGILVPGGFGTRGIEGMILAAKWARESGVPFLGVCLGLQVAAIEFARNVIGRPNSSSTEFLDETLLAPEDQVVIYMPEIDKEHMGGTMRLGLRPTIFQPNSEWSNIRKLYGEVNEVHERHRHRYEINPKIVNDMESRGFIFVGKDETGQRCEIFELKGHPYYVGTQYHPEYTSKVLEPSRPFWGLVAAASGTLGEVIKDINLSEGNENE | 42.86 | 11.50 | 20.25 | −2.83 | 34.40 | 23.95
MAG1: yeast GST-HisX6 fusion protein on proteome chip (protein, UniProt P22134 1-296, looked up, GST-His6 tag, yeast GST-HisX6 fusion protein on proteome chip) DNA-3-methyladenine …: MKLKREYDELIKADAVKEIAKELGSRPLEVALPEKYIARHEEKFNMACEHILEKDPSLFPILKNNEFTLYLKETQVPNTLEDYFIRLASTILSQQISGQAAESIKARVVSLYGGAFPDYKILFEDFKDPAKCAEIAKCGLSKRKMIYLESLAVYFTEKYKDIEKLFGQKDNDEEVIESLVTNVKGIGPWSAKMFLISGLKRMDVFAPEDLGIARGFSKYLSDKPELEKELMRERKVVKKSKIKHKKYNWKIYDDDIMEKCSETFSPYRSVFMFILWRLASTNTDAMMKAEENFVKS | 29.02 | 6.50 | 10.86 | −2.20 | 21.34 | 5.23
YLR020C: yeast GST-HisX6 fusion protein on proteome chip (protein, UniProt Q07950 1-538, looked up, GST-His6 tag, yeast GST-HisX6 fusion protein on proteome chip) Sterol esterase 2: MVNKVVDEVQRLVSAIILTSFMTGLFILSLWKNYVTVHFQHKNDPRDTRSSRTKIQPNDKKKKRPARHSRPLSISSTTPLDLQRDQENNIEYDRTVTSKLSMTSNASLSENGDGNANIKMETNVNQAPYAAENPFQNIALAEDTKLVPDLKYYYKEYGIDIEEFEVETDDGFIIDLWHFKSRLNDGVEEVKREPILLLHGLLQSCGAFASSGRKSLAYFLYESGFDVWLGNNRCGLNAKWNMKKLGNDHSKKWDWDMHQMVQYDLKALINYVLDSTGYAKLSLVAHSQGTTQGFMGLVNGEKLYASDFKLVDKLENFVALAPAVYPGPLLDEKAFVRLMAKGIDSPWYFGRRSFIPLMMTMRKLMVGTKIFSFLSYIMFNYLFDWNDVLWDRVLRDRNFLFSPVHISVKLMQWWLSPLPNKLSFKKGAEKIFPDKKTWFPIAKNDDDSGNNLDNNKLHLNPKRQNSEEFPHIIMFIPKQDRLVDGERLINHFINHEANAVYKIWYIDEYSHLDVLWAHDVIDRIGKPMIENLRFPNAR | 1.24 | 3.75 | 7.34 | 2.67 | −5.66 | 15.68
